{"source": "the nanobody polyreactivity screen of Harvey et al. (2022)", "data": [{"assay": "yeast display, Sf9 membrane polyspecificity reagent, FACS + sequencing; frameworks hold sequencing errors", "summary_of_the_method": "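A nanobody's polyreactivity label depends on the gate it was sorted from. Yeast display cells were stained with 10% biotinylated, detergent-solubilized Sf9 membrane reagent for 1 hour at 4 °C, enriched on streptavidin microbeads and sorted by FACS. The low and high (top ~1%) gates were set on anti-HA fluorescence for expression and streptavidin fluorescence for reagent binding.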", "values": [{"sequence": "QVQLVESGGGLVQAGGSLRLSCAASGSTFFSNAMGWYRQAPGKERELVATIRFGGGSTYADSVKGRFTISRDNAKNTVYLQMNSLIPEDTAVYYCAADDSDKRYTRSWYGYWGQGTQVTVSS", "polyreactivity (PSR sort gate)": "low polyreactivity"}, {"sequence": "QVQLVESGGGLVQAGGSLRLSCAASGSTFFSYTMGWSRQAPGKEWELVAAITWSAGTTYYADSVKGRFTISRDNAKNTVYLQMNSLKPEDTAVYYCNADLSRYPTAVRMDYWGQGTQVTVSS", "polyreactivity (PSR sort gate)": "low polyreactivity"}, {"sequence": "QVQLVESGGGLVQAGGSLRLSCAASGSTFFTNAMGWYRQAPAKERELVAVITKRGGSTYYADSVKGRFTISRDKAKNTVYLQMNSLKPEDTAVYYCAARIPKQQGYGYWGHGTQVTVSS", "polyreactivity (PSR sort gate)": "high polyreactivity"}, {"sequence": "QVQLVESGGGLVQAGGSLRLSCAASGSTFFVYAMGWYRQAPGNESEFVAAISKSGGSTYYADSEKGRFTISRDNAKNTVYLQMNSLKPEDTAVYYCAKYSGVNSIVGNDYWGQGTQVTVSS", "polyreactivity (PSR sort gate)": "high polyreactivity"}, {"sequence": "QVQLVESGGGLVQAGGSLRLSCAASGSTFFVYDMGWYRQAPGKERELVAAISSGGTTTYADSVKGRFTISRDNAKNTVNLQMNSLKPEDTAVYYCNARQYTRPYAFDYWGQGTQVTVSS", "polyreactivity (PSR sort gate)": "low polyreactivity"}, {"sequence": "QVQLVESGGGLVQAGGSLRLSCAASGSTFFVYDMGWYRQAPGKEREMVAAISISDGGTYYADSVKWRFTISRDNAKNYVYLQMNSLKPEDTAVYYCADDYSERYFRGYVYLGQGTQVTVSS", "polyreactivity (PSR sort gate)": "low polyreactivity"}, {"sequence": "QVQLVESGGGLVQAGGSLRLSCAASGSTFFYNAMGWYRQAPGKERELVAAITVTGTSTYYADSVKGRFTISRDNAKNTVYLQMNSLKPEDTGVYYCNTSLKRRRLRFNYWGQGTQVTVSS", "polyreactivity (PSR sort gate)": "low polyreactivity"}, {"sequence": "QVQLVESGGGLVQAGGSLRLSCAASGSTFFYYAMGWYRQAPGKERELVAAISGGGGDTTYADSVKGRFTISRDNAKNTVYLQMNSLKPEDTAVYYCAAVPGSFGSGIFDYWGQGTQATVSS", "polyreactivity (PSR sort gate)": "low polyreactivity"}, {"sequence": "QVQLVESGGGLVQAGGSLRLSCAASGSTFFYYAMGWYRQAPGKERELVAAITRGSRTKYADSVKGRFTISRDNAKNTVYLQMNSLKPEDTAVYYCAARKNLYPYCYLWWQDYDYWVQGTQVTVSS", "polyreactivity (PSR sort gate)": "high polyreactivity"}, {"sequence": "QVQLVESGGGLVQAGGSLRLSCAASGSTFGANAMGWYRQAPGKEREFVAAISSGGRTNYADSVKGRFTISRDNAKNTVYLQMNSLKPEDTAVYYCAASFRRWYFYARHEYGYWGQGTQVTVSS", "polyreactivity (PSR sort gate)": "low polyreactivity"}, {"sequence": "QVQLVESGGGLVQAGGSLRLSCAASGSTFGANAMGWYRQAPGKERELVAAITRGVRTHYADSVKGRFTISRDNAKNTVYLQMNSLKPEDTAVYYCNARSYPRWLRYDYWGQGTQVTVSS", "polyreactivity (PSR sort gate)": "low polyreactivity"}, {"sequence": "QVQLVESGGGLVQAGGSLRLSCAASGSTFGANSMGWYRQAPGKERELVAAITYSSGSTRYADSVKGRFTISRDNAKTTVYLQMNILKPEDTAVYYCAARRTNYFKLGYWGQGTQVTVSS", "polyreactivity (PSR sort gate)": "high polyreactivity"}, {"sequence": "QVQLVESGGGLVQAGGSLRLSCAASGSTFGDYAMGWYRQAPGKERELVAAISARGASTYYADSVKGRFTISRDNAKNTVYLQMNSLKPEDTAVYYCAARYVSSGRRFDYCGQGTQVTVSS", "polyreactivity (PSR sort gate)": "high polyreactivity"}, {"sequence": "QVQLVESGGGLVQAGGSLRLSCAASGSTFGFNAMGWYRQAPGKERELLPLFWSGGSTYYADSVKGRFTISRDNAKNTVYLQMYSLKPEDTAVYYCNKDSPPITRYDYWGQGTQVTVSS", "polyreactivity (PSR sort gate)": "low polyreactivity"}, {"sequence": "QVQLVESGGGLVQAGGSLRLSCAASGSTFGFYAMGWYRQAPGKERELVAAISRGGSTNYADSVKGRFTISRDNAKNTVYLQMNSLKPEDTAVYYCAKAYHATSDYWGQGTQVTVSS", "polyreactivity (PSR sort gate)": "low polyreactivity"}, {"sequence": "QVQLVESGGGLVQAGGSLRLSCAASGSTFGFYAMGWYRQAPGKERELVAAISSAARTYYADSVKGRFTISRDNAKNTVYLQMNSLKPEDTAVYYCSAEAYHWTSYIGYGGVYYWGQGTQVTVSS", "polyreactivity (PSR sort gate)": "low polyreactivity"}]}]}
